Assay results published in patent US20260263521A1 (AIMED BIO, published 2026).

How the values were obtained:
[1] = molecular target: T1, human CD200RLa (Sino Biological, 11620-H08H) recombinant protein (human, UniProt Q6Q8B3 24-239); test: ELISA, plate-bound human CD200RLa (2 ug/mL), antibody 0.0192-300 nM, O.D 450 nm; panel 'recombinant human CD200RLa'
T1 construct: Bought; construct not described
T1 sequence (looked up): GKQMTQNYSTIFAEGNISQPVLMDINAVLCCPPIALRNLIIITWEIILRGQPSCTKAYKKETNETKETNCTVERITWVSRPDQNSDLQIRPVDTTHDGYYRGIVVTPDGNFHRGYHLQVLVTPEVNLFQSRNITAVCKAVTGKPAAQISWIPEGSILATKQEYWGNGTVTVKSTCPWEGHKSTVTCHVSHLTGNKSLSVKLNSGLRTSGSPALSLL
Procedure: 96-well plates were coated with human CD200RLa (Sino Biological, 11620-H08H) and monkey CD200RLa (Sino Biological, 11576-C02H) recombinant proteins at a concentration of 2 μg/mL at 4° C. for 16 hours, and blocked with 3% skim milk for 1 hour. […] Color was developed with a TMB substrate solution (Thermo Scientific, 34029, 1-Step™ Ultra TMB-ELISA Substrate Solution). The color reaction was stopped with stop solution (Invitrogen, SS04, ELISA Stop Solution).

[2] = molecular target: T2, mouse CD200R1 protein (R&D systems, 2554-CD) (mouse, UniProt Q9ES57 26-238, limits assumed); test: ELISA, plate-bound mouse CD200R1 (2 ug/mL), IgG 0.0192-300 nM, OD 450 nm; panel 'mouse CD200R1'
T2 construct: Bought; construct not described
T2 sequence (looked up): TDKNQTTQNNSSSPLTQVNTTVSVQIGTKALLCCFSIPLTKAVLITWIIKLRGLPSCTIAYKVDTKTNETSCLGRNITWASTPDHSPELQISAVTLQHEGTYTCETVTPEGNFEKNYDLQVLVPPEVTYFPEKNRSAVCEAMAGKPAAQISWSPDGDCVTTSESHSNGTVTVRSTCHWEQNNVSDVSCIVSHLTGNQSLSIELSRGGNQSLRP
Procedure: 96-well plates were coated with human CD200R1 (R&D systems, 3414-CD) and mouse CD200R1 protein (R&D systems, 2554-CD) at a concentration of 2 μg/mL at 4° C. for 16 hours and then were blocked with 3% skim milk.
Color was developed with a TMB substrate solution (Thermo Scientific, 34029, 1-Step™ TMB-ELISA Ultra Substrate Solution). The color reaction was stopped with stop solution (Invitrogen, SS04, ELISA Stop Solution). The absorbance was measured at an optical density of 450 nm.

[3] = molecular target: T3, human CD200R1 expressed on cells (Jurkat-CD200R1, U937-CD200R1, HH cells) (human, UniProt Q8TD46 25-348); test: flow cytometry on Jurkat-CD200R1 and HH cells, 500 nM antibody in IgG1 form
T3 construct: whole, on cells; also called HH (CRL-2105); cell surface-expressed CD200R1
T3 sequence (looked up): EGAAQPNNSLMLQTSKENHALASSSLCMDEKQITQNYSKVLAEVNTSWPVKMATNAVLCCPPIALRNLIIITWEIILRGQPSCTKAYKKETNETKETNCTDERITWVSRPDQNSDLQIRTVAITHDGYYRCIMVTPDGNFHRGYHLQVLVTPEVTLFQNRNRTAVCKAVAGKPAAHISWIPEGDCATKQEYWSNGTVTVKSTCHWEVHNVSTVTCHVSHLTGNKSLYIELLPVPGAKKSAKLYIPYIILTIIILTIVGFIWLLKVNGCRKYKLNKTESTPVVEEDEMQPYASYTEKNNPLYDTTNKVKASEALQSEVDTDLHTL
Procedure: The cells were washed by centrifugation at 130 g for 5 minutes. The cells were seeded onto 96-well round-bottom plates (SPL, #34296) at a density of 1×10⁵ cells/well in Flow cytometry staining buffer (Invitrogen, #00-4222-26) or FACS buffer. […] After incubation for 1 hour at 4° C., the cells were treated with Alexa-647 Goat anti-human IgG (H+L) cross-adsorbed secondary antibody (Invitrogen, #A21445) and incubated at 4° C. for an additional 30 minutes. After washing twice with FACS buffer, flow cytometry analysis was performed using a Novocyte Flow cytometer (Agilent).

[4] = molecular target: T4, human CD200R1 recombinant protein (construct not stated) (human, UniProt Q8TD46 27-266, limits assumed); test: hybridoma ELISA on human CD200R1
T4 sequence (looked up): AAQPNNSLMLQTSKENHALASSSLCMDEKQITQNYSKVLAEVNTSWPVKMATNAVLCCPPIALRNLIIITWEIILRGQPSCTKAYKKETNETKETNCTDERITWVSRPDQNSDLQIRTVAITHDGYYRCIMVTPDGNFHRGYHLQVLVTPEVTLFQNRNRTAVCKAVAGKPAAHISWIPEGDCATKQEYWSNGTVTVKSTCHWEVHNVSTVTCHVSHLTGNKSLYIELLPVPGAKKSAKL

[5] = molecular target: T3, human CD200R1 expressed on cells …; test: flow cytometry, HH cells; drawn table, row EC50
[6] = molecular target: T3, human CD200R1 expressed on cells …; test: flow cytometry, HH cells; drawn table

B1: P001006 (IgG) (antibody, V domains shown)
VH: EVQLLESGGGLVQPGGSLRLSCAASGFTFSDYAMSWVRQAPGKGLEWVSGISYGNGNTYYADSVKGRFTISRDNSKNTLYLQMNSLRAEDTAVYYCAKDPWQTAINDFDYWGQGTLVTVSS
VL: QSVLTQPPSASGTPGQRVTISCTGSSSNIGNNSVNWYQQLPGTAPKLLIYTNSHRPSEVPDRFSGSKSGTSASLAISGLRSEDEADYYCGTWDSSLSGYVFGGGTKLTVL
[1]
  binding result: no binding (tested: 300 nM)
[2]
  binding result: no binding (tested: 300 nM)
[3]
  MFI normalized to P001017 (chimeric OX108), %: > 50%

B2: 6C3 (hybridoma clone) (antibody, V domains shown)
VH: QVQLQQPGAELVRPGASVKLSCKASAYTFTSYWMNWVKQRPEQGLEWIGRIDPYDSETHYNQKFKDKAILTVDKSSSTAYMQLSSLTSEDSAVYYCARVDGNHLFDYWGQGTTLTVSS
VL: DIKMTQSPSSMYASLGERVTITCKASQDINSYLSWFQQKPGKSPKTLIYRANRLVDGVPSRFSGSGSGQDYSLTISSLEYEDMGIYYCLQYDEFPYTFGGGTKLEIK
[4]
  ELISA O.D.: ≥ 1.5 O.D.

B3: 6A8 (hybridoma clone) (antibody, V domains shown)
VH: QVQLQQPGAELVKPGAPVKLSCKASGYTFTSYWMNWVKQRPGRGLEWIGRIDPSDSETHYNQKFKDKATLTVDKSSSTAYIQLSSLTSEDSAVYYCARSGGWLPGFAYWGQGTLVTVSA
VL: ENVLTQSPAIMSASPGEKVTMTCSASSSLSYMLWYQQKSSTSPKLWIYDTSKLASGVPGRFSGSGSGNSYSLTISSMEAEDVGTYYCFQGSGNPLMYTFGGGTKLEIK
[4]
  ELISA O.D.: ≥ 1.5 O.D.

B4: 3G4 (hybridoma clone) (antibody, V domains shown)
VH: QVQLQQPGAELVKPGAPVKLSCKASGFTLTSYWMNWVKQRPGRGLEWIGRIDPSDSETHYNQKFKDKATLTVDKSSSTAYIQLTSLTSEDSAVYYCARSGGWLPGFAYWGQGTLVTVSA
VL: ENVLTQSPAIMSASPGEKVTMTCSARSSVSYMHWYQQKSRTSPKLWIYDTSKLASGVPGRFSGSGSGNSYSLTISSMEAEDVATYYCFQGSGDPLMYTFGGGTKLEIK
[4]
  ELISA O.D.: ≥ 1.5 O.D.

B5: 1F1 (hybridoma clone) (antibody, V domains shown)
VH: QVQLQQPGAEFVKPGAPVKLSCKASGYTFTSYWMNWVKQRPGRGLEWIGRIDPADSEIHYNQKFKDKATLTVDKSSSTAYIQFSSLTSEDSAVYYCARSGGWLPGFAYWGQGTLVTVSA
VL: ENVLTQSPAIMSASPGEKVTMTCSASSSLIYMHWYQQKSSTSPKLWIYDTSKLASGVPGRFSGSGSGNSYSLTINSMEAEDVATYYCFQGSGYPLMYTFGGGTKLEIK
[4]
  ELISA O.D.: ≥ 1.5 O.D.

B6: 5E9 (hybridoma clone) (antibody, V domains shown)
VH: QVQLQQSGAELARPGASVKLSCKASGYTFTSYWMQWVKQRPGQGLEWIGAIYPGDGDTRYTQKFKGKATLTADKSSSTAYMQLRSLASEDSAVFYCARGGVTTLVPYFFDYWGQGATLTVSS
VL: DVLMTQTPLSLPVSLGDQASISCRSSQSIVHSNGNTYLEWYLQKPGQSPKLLIYKVSNRFSGVPDRFSGSGSGTDFTLKISRVEAEDLGVYYCFQGSHVPPTFGGGTKLEIK
[4]
  ELISA O.D.: ≥ 1.5 O.D.

B7: P001018 scFv mutant L3-T96R (scFv)
scFv: QVQLVQSGAEVKKPGASVKVSCKASGYTFTSYVMHWVRQAPGQGLEWMGYINPYNDDTNYNEKFKGRVTMTRDTSTSTVYMELSSLRSEDTAVYYCAREDYYGSRWGYWGQGTLVTVSSGGGGSGGGGSGGGGSDIVLTQSPASLAVSPGQRATITCRASKSVSTSGYSYMHWYQQKPGQPPKLLIYLASNLESGVPARFSGSGSGTDFTLTINPVEANDTANYYCQHSRELLRFGQGTKVEIK
[5]
  EC50: 7.26 nM
[6]
  Geo mean (%) at 0.05 nM: 2.7%
  Geo mean (%) at 0.19 nM: 7.5%
  Geo mean (%) at 0.78 nM: 19.4%
  Geo mean (%) at 3.125 nM: 40.2%
  Geo mean (%) at 12.5 nM: 79.5%
  Geo mean (%) at 50 nM: 91.1%
  Geo mean (%) at 200 nM: 116%
  Geo mean (%) at 800 nM: 123%
